According to the supplement of paper PMC10567573:

B1: ATL3 (parent)
chain: YGLQGGMAFLDKRLQVKEHQHEEI
B2: DLC1 (parent)
chain: AEVVKIRDSFSNQNTETKDTKSR

Variants of: B1
Assay: protein stability index of a GFP-peptide fusion (GPS, HEK-293T) (PSI 1-6); higher = more stable
Conditions: c terminus: a fixed tail appended
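Also: lentivirally expressed fusions sorted by FACS into six bins by GFP to DsRed ratio, PSI derived from sequencing read proportions per bin multiplied by bin number.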

Protein stability index, by site and new letter:
Q20: A 2.87, C 3.54, D 3.09, E 2.5, F 3.31, G 3.57, H 3.12, I 2.56, K 1.85, M 2.35, N 2.86, P 2, R 1.57, S 2.12, T 2.2, V 2.99, W 1.55, Y 2.58
H21: A 2.51, C 2.48, D 2.11, E 3.27, F 1.6, I 3.39, K 3.21, L 2.8, M 2.2, P 2.33, Q 2.44, R 3.51, S 3.88, T 3.49, V 2.1, Y 2.55
E22: A 2.54, C 2.48, D 2.48, F 2.03, G 2.8, H 2.91, I 2.94, K 1.86, L 2.68, M 2.24, N 3.19, P 2.96, Q 1.75, R 2.16, S 3.33, T 1.9, V 1.45, W 2.76, Y 2.6
E23: A 1.94, C 3.04, D 3.04, F 2.43, G 3.58, H 2.38, I 2.66, K 2.43, L 2.25, M 3.12, N 2.85, P 3.04, Q 2.9, R 2.99, S 2.41, T 2.74, V 2.17, W 2.57, Y 2.76
I24: A 2.58, C 3.25, D 2.33, E 2.29, F 4.03, G 3.23, H 3.42, K 2.35, L 2.51, M 1.71, N 2.89, P 2.81, Q 2.14, R 2.26, S 2.56, T 1.79, V 2.5, Y 4.04

Variants of: B2
Assay: as above
Conditions: c terminus: native

Protein stability index: each site, then its substitutions
A1: C 2.19, D 3.12, F 2.06, G 2.9, H 2.51, I 2.06, K 3.16, L 2.08, M 2.37, N 3.03, P 1.72, Q 3.03, R 2.73, S 1.75, T 2.08, V 1.92, W 2.76, Y 1.79
E2: A 1.88, C 2.43, D 2.99, F 2.11, G 1.95, H 2.02, K 1.81, L 1.03, M 1.63, N 2.04, Q 1.79, R 1.88, S 2.75, T 3.03, V 1.7, Y 1.52
V3: A 2.24, C 2.69, D 3.54, E 2.12, F 2.09, G 2.12, H 2, I 1.63, K 4.55, L 2.29, M 2.87, N 3, P 3.46, Q 2.47, R 1.89, S 1.95, T 2.19, W 2.53, Y 1.7
V4: A 1.73, C 2.3, D 3.04, E 2.59, F 2.89, G 2.01, H 2.14, I 1.98, K 2.3, L 4.87, M 2.05, N 2.48, P 3.04, Q 2.81, R 2.3, S 2.12, T 2.18, W 2.05, Y 2.76
K5: A 2, C 2.88, D 3.23, E 3.01, G 3.3, H 2.58, I 2.02, L 2.4, M 2.09, N 2.93, P 2.67, Q 2.43, R 2.33, S 2.77, T 2.88, V 1.94, W 1.84, Y 2.13
I6: A 2.47, C 2.43, D 2.79, E 3.33, F 2.41, G 2.38, H 2.42, K 3.3, L 2.74, M 2.64, P 3.4, Q 2.67, R 3.18, S 2.74, T 3.6, V 2.74, Y 2.65
R7: A 3.56, C 2.5, D 3.65, E 2.99, F 3.38, G 2.87, H 2.21, I 2.52, K 2.88, L 3.01, M 3.19, N 3.31, P 3.24, S 2.42, V 3.12, W 1.69, Y 1.77
D8: A 2.53, C 1.46, E 2.92, F 3.02, G 2.23, H 2.41, K 2.08, L 2.62, M 1.65, N 2.07, P 1.73, Q 1.26, S 1.8, T 2.32, V 3.31, Y 3.5
S9: A 2.55, C 2.8, D 2.27, E 3.48, F 1.48, G 2, H 3.54, I 1.49, K 2.32, L 2.95, M 2.92, N 2.22, P 2.64, Q 1.87, R 2.53, T 2.29, V 2.25, W 2.14, Y 1.67
F10: A 3.76, C 2.54, D 4, E 3.46, G 4.24, H 3.71, I 2.32, K 4.18, L 3.26, M 2.93, N 3.64, P 3.63, Q 3.46, R 4.5, S 4, T 3.68, V 2.95, Y 2.53
S11: A 1.9, C 2.58, D 2.05, E 2.4, F 2.85, G 2.36, H 2.61, I 1.9, K 3.15, L 1.88, M 1.46, N 4.69, P 2.54, Q 2.62, R 2.78, T 2.48, V 2.35, W 1.88, Y 2.65
N12: A 2.33, C 1.63, E 2.71, F 1.81, G 2.51, H 2.44, I 2.17, K 2.17, L 3.05, M 2.5, P 1.95, Q 2.03, R 1.7, S 1.86, T 2.23, V 1.68, Y 1.78
Q13: A 2.41, C 1.93, D 2.37, E 2.9, F 2.26, G 2.33, H 2.32, K 1.77, L 2.31, M 1.94, N 2.56, P 2.4, R 3.77, S 1.87, T 2.45, V 3.62, W 2.36, Y 2.92
N14: A 1.86, C 2.16, D 2.33, E 2.24, F 1.93, G 2.08, H 2.46, I 2.08, K 2.44, L 2.09, P 3.12, Q 2.37, R 2.48
